In PMC6423008 one finds pKa data, which are given here for 2 substances.

As a reminder, the pKa is the negative logarithm of the acid dissociation constant.

“And” between values parts separate entries of the source, which are not always exact repeats. Identical values can stand only once.

In one data set the target is His52 (UniProt position 53, FTWSQHYSGGH). The data set can be described thus: NMR. To be noted: 283 K (10 °C), 50 mM KCl plus 20 mM potassium phosphate, folded, 0.5 mM protein.
In a further data set the target is His57 (UniProt position 58, HYSGGHTMTNK). The data set can be described thus: NMR. To be noted: 283 K (10 °C), 50 mM KCl plus 20 mM potassium phosphate, folded, 0.5 mM protein.
The target in data set [1] is His98 (UniProt position 99, NFPNYHQTSEI). The data set can be described thus: NMR. To be noted: 283 K (10 °C), 50 mM KCl plus 20 mM potassium phosphate, folded, 0.5 mM protein.
For data set [2], the target named is His98 (UniProt position 99, SEKFSHEQEVK). To be noted: apo chicken liver BABP; cited from earlier work.
Where [3] appears, read: 0.05% NaN3, holo: doubly ligated I-BABP:GCDA:GCA = 1.0:1.5:1.5 complex.

For the substance “Ileal bile acid-binding protein (I-BABP, gastrotropin, FABP6) (Homo sapiens)”, the pKa is 6.7 with His52 (0.05% NaN3, apo (ligand-free)); 6.6 and 6.5 and 6.8 with His52 (setting [3]); 6.4 with His57 (0.05% NaN3, apo (ligand-free)); 7.9 with His57 (setting [3]); 6.6 and 6.7 and 6.8 with His98 [1] (0.05% NaN3, apo (ligand-free)); 7.0 and 7.2 with His98 [1] (setting [3]).

Turning to “Liver bile acid-binding protein (cL-BABP, liver basic fatty acid-binding protein) (Gallus gallus)”, the pKa in the data set with His98 [2] is recorded as 4.7.
